Series [1] concerns the target PS2 S-layer protein, ex vivo S-layer fragments from C. glutamicum ATCC13032 icd::cspB (C. glutamicum). In words: cryo-EM structure; ex vivo PS2 S-layer fragments, 0.02% DDM added before plunging, tilted images at 15° and 30°, single-particle reconstruction with C6 symmetry; lattice of hexamers (C6) joined by trimeric (C3) contacts.
Series [2] deals with the molecule itself. In words: negative-stain electron microscopy of isolated S-layer sheets; isolated S-layer sheets (cleared SDS extractions of C. glutamicum; washed recombinant sheets from E. coli); lattice seen in the power spectrum; sheets also kept after incubation with 10 mM EDTA.

Broadly, the stoichiometry N is a count of units in the complex or per binding partner.

With “PS2 S-layer protein, ex vivo S-layer fragments from C. glutamicum ATCC13032 icd::cspB (natural protein)”, the stoichiometry N in series [1] turned out to be 6.

B1: PS2 assembly domain (PS2^AD; residues 30 to 483), recombinant (domain or fragment, C. glutamicum, UniProt Q04985 30-483, looked up)
chain: AQETNPTFNITNGFNDADGSTIQPVGPVNHTEETLRDLTDSTGAYLEEFQNGTVEEIVEAYLQVQASADGFDPSEQAAYEAFEAARVRASQELAASAETITKTRESVAYALKVDQEATAAFEAYRNALRDAAISINPDGSINPDTSINLLIDAANAANRTDRAEIEDYAHLYTQTDIALETPQLAYAFQDLKALQAEVDADFEWLGEFGIDQEDGNYVQRYHLPAVEALKAEVDARVAAIEPLRADSIAKNLEAQKSDVLVRQLFLERATAQRDTLRVVEAIFSTSARYVELYENVENVNVENKTLRQHYSALIPNLFIAAVANISELNAADAEAAAYYLHWDTDLATNDEDEAYYKAKLDFAIETYAKILFNGEVWQEPLAYVQNLDAGARQEAADREAARAADEAYRAEQLRIAQEAADAQKAIAEALAKEAEGNNDNSSDNTETGSSDIGS
notes: PS2 (cspB) of C. glutamicum, residues 30 to 483; the membrane anchoring domain is replaced by a hexahistidine tag; Vector pASK-IBA3plus; also called recombinant soluble PS2^AD; plasmid A231; source: E. coli BL21 (DE3) cytoplasm, gel-like pelleted fraction, washed with 1% DDM and SEC buffer; not shown: hexahistidine, C-terminal, kept
With B1, the binding result in series [2] was “binds”.
